Paper PMC7435274

Experiments:
[1] = target: Cys^5-antag: secretin antagonist (c[E^16, K^20], Y^10, I^17, Cha^22, R^25)sec(5–27) with cysteine in position 5; test: cysteine trapping with 125I-labeled probe, SDS-PAGE autoradiography densitometry; settings: SecR cysteine replacement mutants transiently expressed in COS-1 cells; nonreducing conditions; three experiments; read off a plot
[2] = target: Cys^6-antag: secretin antagonist (c[E^16, K^20], Y^10, I^17, Cha^22, R^25)sec(5–27) with cysteine in position 6; test: as above; settings: SecR cysteine replacement mutants transiently expressed in COS-1 cells; nonreducing conditions; three experiments; read off a plot

Substance	response (% of maximal signal within this loop) [1]	response (% of maximal signal within this loop) [2]
wild-type human secretin receptor, on COS-1 cells (from UniProt P47872) A365C	22	37
wild-type human secretin receptor, on COS-1 cells (from UniProt P47872) D364C	22	33
wild-type human secretin receptor, on COS-1 cells (from UniProt P47872) E363C	22	21
wild-type human secretin receptor, on COS-1 cells (from UniProt P47872) E373C	28	62
wild-type human secretin receptor, on COS-1 cells (from UniProt P47872) F358C	75	93
wild-type human secretin receptor, on COS-1 cells (from UniProt P47872) F372C	28	46
wild-type human secretin receptor, on COS-1 cells (from UniProt P47872) I368C	12	20
wild-type human secretin receptor, on COS-1 cells (from UniProt P47872) L370C	19	43
wild-type human secretin receptor, on COS-1 cells (from UniProt P47872) L374C	35	88
wild-type human secretin receptor, on COS-1 cells (from UniProt P47872) M366C	18	35
wild-type human secretin receptor, on COS-1 cells (from UniProt P47872) Q369C	14	41

Continued, values first:

response (% of maximal signal within this loop) [1]	response (% of maximal signal within this loop) [2]	Substance
88	98	wild-type human secretin receptor, on COS-1 cells (from UniProt P47872) A359C
4	12	wild-type human secretin receptor, on COS-1 cells (from UniProt P47872) E367C
63	70	wild-type human secretin receptor, on COS-1 cells (from UniProt P47872) F360C
22	40	wild-type human secretin receptor, on COS-1 cells (from UniProt P47872) F371C
30	40	wild-type human secretin receptor, on COS-1 cells (from UniProt P47872) P362C
87	80	wild-type human secretin receptor, on COS-1 cells (from UniProt P47872) S361C
